Where no end group is shown, it is not given here. FAM = 5(6)-carboxyfluorescein; Ahx = NCCCCCC(=O)O
Molecular target: T1, recombinant mouse macrophage mannose receptor rmMMR/CD206 (mouse, UniProt Q61830 20-1388)
T1 construct: macrophage mannose receptor (CD206/MRC1), mouse, recombinant; take the limits from the vendor's data sheet; also called MRC1; mouse recombinant CD206; source: bought: R&D Systems (catalog number 2535-MM-050)
T1 sequence (looked up): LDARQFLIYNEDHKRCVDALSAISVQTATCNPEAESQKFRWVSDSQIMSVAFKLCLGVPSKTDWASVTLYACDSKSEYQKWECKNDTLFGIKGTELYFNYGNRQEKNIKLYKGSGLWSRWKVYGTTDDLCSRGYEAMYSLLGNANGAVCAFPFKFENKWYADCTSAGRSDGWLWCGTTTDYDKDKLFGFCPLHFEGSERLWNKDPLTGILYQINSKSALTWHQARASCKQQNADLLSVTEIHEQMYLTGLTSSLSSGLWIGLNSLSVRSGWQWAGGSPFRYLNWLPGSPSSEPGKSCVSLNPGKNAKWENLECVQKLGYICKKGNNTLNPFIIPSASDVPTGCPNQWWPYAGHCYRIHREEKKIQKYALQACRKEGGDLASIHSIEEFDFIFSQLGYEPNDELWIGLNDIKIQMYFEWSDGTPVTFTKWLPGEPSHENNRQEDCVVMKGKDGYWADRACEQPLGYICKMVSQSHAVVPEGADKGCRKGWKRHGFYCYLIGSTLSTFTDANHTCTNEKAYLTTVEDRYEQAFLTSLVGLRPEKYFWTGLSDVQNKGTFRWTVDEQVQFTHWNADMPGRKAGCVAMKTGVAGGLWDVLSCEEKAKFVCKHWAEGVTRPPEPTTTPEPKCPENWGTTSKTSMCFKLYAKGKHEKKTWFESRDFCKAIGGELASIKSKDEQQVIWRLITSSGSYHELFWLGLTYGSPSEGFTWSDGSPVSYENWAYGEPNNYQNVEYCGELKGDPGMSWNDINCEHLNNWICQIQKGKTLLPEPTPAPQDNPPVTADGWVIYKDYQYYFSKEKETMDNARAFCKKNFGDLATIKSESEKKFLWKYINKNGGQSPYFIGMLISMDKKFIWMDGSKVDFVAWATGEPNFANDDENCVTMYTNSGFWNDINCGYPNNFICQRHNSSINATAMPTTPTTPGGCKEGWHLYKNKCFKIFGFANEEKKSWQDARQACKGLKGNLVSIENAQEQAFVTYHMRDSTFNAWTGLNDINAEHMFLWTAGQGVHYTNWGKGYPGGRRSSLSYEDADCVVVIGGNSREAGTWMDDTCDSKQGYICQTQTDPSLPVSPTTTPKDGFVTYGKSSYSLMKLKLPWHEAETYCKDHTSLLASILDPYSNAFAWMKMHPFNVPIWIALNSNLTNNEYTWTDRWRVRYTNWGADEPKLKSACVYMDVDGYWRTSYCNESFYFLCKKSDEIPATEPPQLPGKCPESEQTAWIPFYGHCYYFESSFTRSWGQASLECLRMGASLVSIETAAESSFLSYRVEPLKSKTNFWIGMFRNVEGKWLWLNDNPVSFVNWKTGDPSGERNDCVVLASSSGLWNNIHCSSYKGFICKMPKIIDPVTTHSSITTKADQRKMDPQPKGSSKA
Assay: fluorescence polarisation; fluorescence anisotropy in solution, kinetic mode, 50 nM FAM peptide and 1 µM protein (pseudo first-order), 25 °C, 10 mM Na-HEPES, 150 mM NaCl, 1 mM CaCl2, 0.1% Pluronic F-127, pH 7.4
Details: both partners purified

B1: FAM-CSPGAK (peptide)
peptide: {FAM-Ahx}-CSPGAK
notes: also called linear CSPGAK motif; source: synthetic peptide; bought: TAG Copenhagen
  binding result: binds

From paper PMC5676682, “Precision Targeting of Tumor Macrophages with a CD206 Binding Peptide” (Scientific Reports, 2017)
